According to publication PMC9482650, “Quantitative fragmentomics allow affinity mapping of interactomes” (Nature Communications, 2022):

What was measured:
Assay in all cases: holdup assay
Parameters in all cases: key: below the threshold = too weak to quantify, mostly under pKd 3.1 to 4
[1] = molecular target: T1, APBA3_1, O96018
T1 sequence (O96018 389-490, limits assumed, looked up): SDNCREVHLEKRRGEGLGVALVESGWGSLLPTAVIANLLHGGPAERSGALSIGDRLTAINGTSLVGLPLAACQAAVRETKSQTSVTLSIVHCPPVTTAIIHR

[2] = molecular target: DLG2_2, Q15700
Chain of DLG2_2, Q15700 (Q15700 189-283): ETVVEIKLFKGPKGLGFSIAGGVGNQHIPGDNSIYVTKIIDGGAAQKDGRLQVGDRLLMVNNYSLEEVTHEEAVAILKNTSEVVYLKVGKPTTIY

[3] = molecular target: T2, CARD11, Q9BXL7
T2 sequence (Q9BXL7 662-765, limits assumed, looked up): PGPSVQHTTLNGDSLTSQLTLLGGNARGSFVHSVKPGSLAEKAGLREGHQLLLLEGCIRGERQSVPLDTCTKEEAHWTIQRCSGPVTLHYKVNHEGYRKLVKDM

[4] = molecular target: T3, LIN7C, Q9NUP9
T3 sequence (Q9NUP9 88-185, limits assumed, looked up): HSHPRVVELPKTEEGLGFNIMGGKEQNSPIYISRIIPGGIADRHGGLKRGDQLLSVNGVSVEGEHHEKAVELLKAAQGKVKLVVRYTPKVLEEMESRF

[5] = molecular target: GRID2IP_1, A4D2P6
Chain of GRID2IP_1, A4D2P6 (A4D2P6 1-87): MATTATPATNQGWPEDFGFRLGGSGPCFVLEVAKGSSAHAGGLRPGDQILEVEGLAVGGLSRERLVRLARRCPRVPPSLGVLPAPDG

[6] = molecular target: LDB3, O75112
Chain of LDB3, O75112 (O75112 1-94): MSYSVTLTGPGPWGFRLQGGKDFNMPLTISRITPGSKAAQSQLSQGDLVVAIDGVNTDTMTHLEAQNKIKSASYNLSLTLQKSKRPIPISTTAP

[7] = molecular target: T4, SYNJ2BP, P57105
T4 sequence (P57105 8-110, limits assumed, looked up): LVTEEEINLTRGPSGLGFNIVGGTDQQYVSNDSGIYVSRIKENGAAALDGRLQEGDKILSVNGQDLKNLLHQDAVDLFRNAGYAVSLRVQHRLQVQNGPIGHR

[8] = molecular target: GRIP2_7, Q9C0E4
Chain of GRIP2_7, Q9C0E4 (Q9C0E4 934-1023): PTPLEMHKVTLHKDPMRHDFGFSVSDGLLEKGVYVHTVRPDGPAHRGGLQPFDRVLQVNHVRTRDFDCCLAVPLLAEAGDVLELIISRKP

[9] = molecular target: T5, GRIP1_7, Q9Y3R0
T5 sequence (Q9Y3R0 999-1096, limits assumed, looked up): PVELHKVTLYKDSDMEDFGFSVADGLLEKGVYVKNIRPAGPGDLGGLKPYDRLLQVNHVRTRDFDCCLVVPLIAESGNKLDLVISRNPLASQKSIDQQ

[10] = molecular target: MAGI2_2, Q86UL8
Chain of MAGI2_2, Q86UL8 (Q86UL8 410-522): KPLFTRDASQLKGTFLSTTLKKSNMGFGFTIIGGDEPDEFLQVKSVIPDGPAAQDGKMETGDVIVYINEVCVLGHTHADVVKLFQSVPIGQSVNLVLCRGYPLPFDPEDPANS

[11] = molecular target: NHERF2_2, Q15599
Chain of NHERF2_2, Q15599 (Q15599 142-238): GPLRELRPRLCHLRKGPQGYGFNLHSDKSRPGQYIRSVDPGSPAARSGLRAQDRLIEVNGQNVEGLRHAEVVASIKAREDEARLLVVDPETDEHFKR

[12] = molecular target: T6, SNTG2, Q9NY99
T6 sequence (Q9NY99 68-166, limits assumed, looked up): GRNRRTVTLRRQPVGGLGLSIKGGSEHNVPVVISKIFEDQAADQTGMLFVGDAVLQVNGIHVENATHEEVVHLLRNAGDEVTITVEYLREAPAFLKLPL

[13] = molecular target: FRMPD2_2, Q68DX3
Chain of FRMPD2_2, Q68DX3 (Q68DX3 944-1038): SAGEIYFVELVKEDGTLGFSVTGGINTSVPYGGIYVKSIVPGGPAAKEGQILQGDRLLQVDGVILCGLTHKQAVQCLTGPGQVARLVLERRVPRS

[14] = molecular target: GRID2IP_2, A4D2P6
Chain of GRID2IP_2, A4D2P6 (A4D2P6 272-370): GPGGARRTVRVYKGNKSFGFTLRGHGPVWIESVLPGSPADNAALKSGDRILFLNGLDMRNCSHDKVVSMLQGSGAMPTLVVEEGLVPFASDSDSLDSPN

[15] = molecular target: T7, MPDZ_12, O75970
T7 sequence (O75970 1857-1958, limits assumed, looked up): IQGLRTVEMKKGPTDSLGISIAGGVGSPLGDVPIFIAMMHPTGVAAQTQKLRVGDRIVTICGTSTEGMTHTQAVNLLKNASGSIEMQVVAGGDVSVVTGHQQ

[16] = molecular target: HTRA2, O43464
Chain of HTRA2, O43464 (O43464 355-458): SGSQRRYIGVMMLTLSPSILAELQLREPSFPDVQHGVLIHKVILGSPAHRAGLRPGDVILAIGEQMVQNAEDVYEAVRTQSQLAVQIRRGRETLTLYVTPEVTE

[17] = molecular target: T8, HTRA3, P83110
T8 sequence (P83110 354-453, limits assumed, looked up): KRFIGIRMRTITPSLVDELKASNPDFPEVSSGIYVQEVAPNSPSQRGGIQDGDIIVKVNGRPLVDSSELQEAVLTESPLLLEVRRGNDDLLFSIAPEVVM

[18] = molecular target: DLG4_3, P78352
Chain of DLG4_3, P78352 (P78352 306-403): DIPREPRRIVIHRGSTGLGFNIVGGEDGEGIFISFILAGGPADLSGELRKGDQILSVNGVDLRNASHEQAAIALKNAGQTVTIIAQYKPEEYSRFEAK

[19] = molecular target: MAST1, Q9Y2H9
Chain of MAST1, Q9Y2H9 (Q9Y2H9 962-1065): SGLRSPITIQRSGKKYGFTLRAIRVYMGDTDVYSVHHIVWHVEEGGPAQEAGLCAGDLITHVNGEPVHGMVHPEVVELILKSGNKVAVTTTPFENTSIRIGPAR

[20] = molecular target: SCRIB_1, Q14160
Chain of SCRIB_1, Q14160 (Q14160 718-814): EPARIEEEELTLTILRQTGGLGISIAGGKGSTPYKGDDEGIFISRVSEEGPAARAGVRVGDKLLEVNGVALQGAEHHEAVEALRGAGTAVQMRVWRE

[21] = molecular target: GORASP1, Q9BQQ3
Chain of GORASP1, Q9BQQ3 (Q9BQQ3 1-208): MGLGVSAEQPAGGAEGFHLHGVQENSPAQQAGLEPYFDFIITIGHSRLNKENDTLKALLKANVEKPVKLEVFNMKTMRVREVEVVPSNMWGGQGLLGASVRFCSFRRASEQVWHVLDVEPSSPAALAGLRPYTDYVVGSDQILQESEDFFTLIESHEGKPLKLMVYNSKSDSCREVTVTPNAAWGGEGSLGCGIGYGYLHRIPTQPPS

[22] = molecular target: GORASP2, Q9H8Y8
[23] = molecular target: AHNAK1, Q09666
Chain of AHNAK1, Q09666 (Q09666 4-100): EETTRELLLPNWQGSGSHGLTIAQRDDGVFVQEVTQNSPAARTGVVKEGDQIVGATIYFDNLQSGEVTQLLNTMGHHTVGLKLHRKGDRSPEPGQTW

[24] = molecular target: DLG1_3, Q12959
Chain of DLG1_3, Q12959 (Q12959 457-571): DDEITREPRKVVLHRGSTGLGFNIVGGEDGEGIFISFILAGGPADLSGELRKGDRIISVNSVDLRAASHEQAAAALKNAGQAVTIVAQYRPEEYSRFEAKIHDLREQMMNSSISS

[25] = molecular target: GRIP2_5, Q9C0E4
Chain of GRIP2_5, Q9C0E4 (Q9C0E4 544-642): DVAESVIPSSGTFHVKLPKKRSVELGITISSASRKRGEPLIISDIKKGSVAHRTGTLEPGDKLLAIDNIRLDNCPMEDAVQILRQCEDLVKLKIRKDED

[26] = molecular target: MAGI2_5, Q86UL8
Chain of MAGI2_5, Q86UL8 (Q86UL8 915-1017): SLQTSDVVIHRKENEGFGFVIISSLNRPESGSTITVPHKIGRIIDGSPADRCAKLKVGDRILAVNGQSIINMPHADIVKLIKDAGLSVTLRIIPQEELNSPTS

[27] = molecular target: T9, TIAM2, Q8IVF5
T9 sequence (Q8IVF5 885-986, limits assumed, looked up): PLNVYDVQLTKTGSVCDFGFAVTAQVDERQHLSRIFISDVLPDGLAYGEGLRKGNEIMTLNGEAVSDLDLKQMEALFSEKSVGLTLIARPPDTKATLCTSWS

[28] = molecular target: T10, SNTA1, Q13424
T10 sequence (Q13424 82-180, limits assumed, looked up): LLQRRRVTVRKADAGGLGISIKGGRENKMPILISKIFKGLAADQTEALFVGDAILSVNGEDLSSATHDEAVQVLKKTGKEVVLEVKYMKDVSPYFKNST

[29] = plain residues with an end cap or a label only (N-terminal biotin on a linker: ttds)
[30] = plain residues with an end cap or a label only (N-terminal biotin on a linker: ahx)

B1: HPV18-E6, P06463 (peptide)
chain: RLQRRRETQV
B1 was tested, and the pKd [1, 29] was “below the threshold”, the pKd [2, 29] was 5.19 and the pKd [3, 29] was “below the threshold”. The pKd [4, 29] was 4.17, the pKd [5, 29] was “below the threshold” and the pKd [6, 29] was “below the threshold”. The pKd [7, 29] was 5.35, the pKd [8, 29] was “below the threshold” and the pKd [9, 29] was “below the threshold”. For the same binder, the pKd [10, 29] was 5.16, the pKd [11, 29] was “below the threshold” and the pKd [12, 29] was 4.03. For the same binder, the pKd [13, 29] was “below the threshold”, the pKd [14, 29] was “below the threshold” and the pKd [15, 29] was “below the threshold”. The pKd [16, 29] was “below the threshold”, the pKd [17, 29] was “below the threshold” and the pKd [18, 29] was 5.74. The pKd [19, 29] was 5.33, the pKd [20, 29] was 4.26 and the pKd [21, 29] was “below the threshold”. The pKd [22, 29] was 3.89, the pKd [23, 29] was “below the threshold” and the pKd [24, 29] was 5.02. The pKd [25, 29] was “below the threshold”, the pKd [26, 29] was 3.78 and the pKd [27, 29] was “below the threshold”. It also gave a pKd [28, 29] of 4.7.

B2: TJP3, O95049 (peptide)
chain: GYDWGPATDL
With B2 the pKd [1, 30] was “below the threshold”, the pKd [2, 30] was “below the threshold” and the pKd [3, 30] was “below the threshold”. The pKd [4, 30] was 3.71, the pKd [5, 30] was “below the threshold” and the pKd [6, 30] was 3.97. For the same binder, the pKd [7, 30] was “below the threshold”, the pKd [8, 30] was “below the threshold” and the pKd [9, 30] was “below the threshold”. The pKd [10, 30] was “below the threshold”, the pKd [11, 30] was 4.64 and the pKd [12, 30] was 4.32. For the same binder, the pKd [13, 30] was 3.54, the pKd [14, 30] was 4.47 and the pKd [15, 30] was “below the threshold”. For the same binder, the pKd [16, 30] was “below the threshold”, the pKd [17, 30] was “below the threshold” and the pKd [18, 30] was “below the threshold”. For the same binder, the pKd [19, 30] was 4.78, the pKd [20, 30] was 3.76 and the pKd [21, 30] was “below the threshold”. The pKd [22, 30] was “below the threshold”, the pKd [23, 30] was “below the threshold” and the pKd [24, 30] was “below the threshold”. The pKd [25, 30] was “below the threshold”, the pKd [26, 30] was “below the threshold” and the pKd [27, 30] was “below the threshold”. For the same binder, the pKd [28, 30] was 4.07.
